Results reported in patent publication USRE39192E1, “Supplemented and unsupplemented tissue sealants, methods of their production and use” (American National Red Cross, priority 1990, dated 2006).

Target: T1, thrombin (Homo sapiens, UniProt P00734)
T1 construct: converts prothrombin into thrombin
Assay: Stability of HBGF-1β to thrombin in the presence of heparin (Western blot)
Type: biochemical
Conditions: heparin as low as 5U/ml; thrombin 250 U/ml; 37° C.
Procedure: FIGS. 1A-1F show Western blots of gels on which samples containing HBGF-1β had been incubated with 250 U/ml thrombin in the presence of increasing concentrations of heparin. Solutions containing HBGF-1β (10 μg/ml), thrombin ([…]), and increasing concentrations of heparin (0, 0.5, 5, 10, 20, and 50 units/ml) were incubated at 37° C. for 72 hours. Aliquots were periodically removed from each of the incubating mixtures and were loaded onto 8% SDS polyacrylamide gels that were prepared and run as described by Laemmli (Nature 227:680 (1970)). The gel was then electroblotted onto nitrocellulose and the band corresponding to HBGF-1β was identified using an affinity-purified polyclonal rabbit antiserum to HBGF-1β.
The concentrations of heparin in the incubating mixtures were: panel A) 0 units/ml; panel B) 0.5 U/ml; Panel C) 5 U/ml; panel D) 10 U/ml; panel E) 20 U/ml; and panel F) 50 U/ml. […]
Similarly, the ability of a selected inhibitor to protect a growth factor from degradation by TS components may be assessed by any method known to those of skill in the art. […]
It was necessary to add an ingredient to the FG that would inhibit or prevent the digestion of HBGF-1β by thrombin (Lobb, Biochem. 27:2572-2578 (1988)), which is a component of FG. […] The stability of HBGF-1 in the presence of increasing concentrations of heparin was assessed. […]

HBGF-1: heparin binding growth factor-1, also known as ECGF and FGF-1; recombinant HBGF-1β expressed in E. coli
protection of HBGF-1β from digestion by thrombin: protected from digestion by thrombin
